In patent US11351270B2, “Junctophilin-2 fragments and uses therefor” (University of Iowa Research Foundation, priority 2016, dated 2022):

Assays:
[1] = tested on: JP2-KD cardiomyocytes; test: Confocal Ca2+ imaging in JP2-KD cardiomyocytes after adenoviral expression; type: cell-based, mouse
Text: Specifically, conditional shJP2 mice (provided by Dr. Wehrens) (van Oort et al., 2011) were crossed with mice carrying the cardiac-specific α-myosin heavy chain promoter upstream of Cre (% MHC-Cre, also FVB-Tg(Myh6-cre)2182Mds/J, The Jackson Laboratory). The shJP2 mice were maintained on a C57BL/6 background for more than 10 generations. The αMHC-Cre mice were maintained on an FVB background. PCR was used to genotype the offspring. The near complete depletion of JP2 protein in JP2-KD (αMHC-Cre X shJP2) hearts has been reported recently (Chen et al., 2013). JP2-KD mice were sacrificed at 2 months of age for isolation and culture of ventricular cardiomyocytes as described below.
(§1) Genecarrior-1 (Epoch Lab) was used to transfect plasmids into HEK293T cells. Isolation and culture of cardiomyocytes were performed as described previously (Guo et al., 2012). […] Ca^2+ Imaging experiments were performed 40 hours after adenoviral infection.
(§2) Cells were loaded with Rhod-2AM at 37° C. for 20 minutes, followed by washing with Tyrode's solution at room temperature for 15 minutes before Ca^2+ imaging. Confocal images were acquired using a ×63, 1.3 numerical aperture oil immersion objective mounted on a Zeiss LSM 510 confocal microscope. Confocal line scanning was used to record Ca^2+ signals. Steady-state Ca^2+ transients were recorded in Tyrode's solution containing 1.8 mM Ca^2+ under field stimulation of 1 Hz. At least five steady-state transients for each cell were analyzed and averaged to represent Ca^2+ signals of the cell. Ca^2+ imaging data were analyzed by using a home-complied software, CaTeasy, which is coded in MATLAB 2013a (Mathworks). Briefly, the program normalizes Ca^2+ transient images on a column-by-column basis (512 columns/image). The characteristic parameters of normalized transients were detected automatically. The firing time of every scanning pixel was detected column by column on the basis of the maximum local variability of pixel intensity. The profile of the point-to-point firing time was indicated by a red line overlapping on the Ca^2+ image. Index of desynchronization, defined by the mean absolute deviation of firing time of each scanning pixel (with every 8 pixels binned), was used to evaluate the dyssynchrony of Ca^2+ transients. This automated software for calcium transient analysis is available upon request.

[2] = tested on: WT cardiomyocytes; test: Confocal Ca2+ imaging in WT cardiomyocytes after adenoviral expression; type: cell-based, mouse; details: 1-Hz field stimulation; overexpression in WT cardiomyocytes
Method: as §1
as §2, with “Index of desynchronization, defined by the mean absolute deviation of firing time of each scanning pixel (with every 8 pixels binned), was used to evaluate the dyssynchrony of Ca^2+ transients. This automated software for calcium transient analysis is available upon request.” left out

[3] = tested on: cultured adult murine cardiomyocytes; test: Affymetrix Genechip analysis of cultured cardiomyocytes; type: cell-based, mouse; details: vs Ad-Empty control
Method: Genecarrior-1 (Epoch Lab) was used to transfect plasmids into HEK293T cells. Isolation and culture of cardiomyocytes were performed as described previously (Guo et al., 2015). Adenoviruses were applied at a multiplicity of infection (MOI) of about 100, which results in transfection of almost all cells as confirmed by immunostaining of eptiope tags.
Microarray assay was performed by Affymetrix GeneChip® Mouse Genome 430 2.0 according to the standard procedure of cRNA preparation and Genechip hybridization. The R package limma (version 3.22.7) (Ritchie et al., 2015) was used for processing microarray data and identifying differentially expressed genes (the cutoff of significance was p value<0.01). David (Huang et al., 2009) was used for gene enrichment (GO) analysis. Ingenuity pathway analysis (IPA, Qiagen) was used for pathway analysis.

[4] = tested on: RyR2 and Cav1.2; test: Coimmunoprecipitation with E-C coupling channels; type: binding, mouse; details: anti-HA immunoprecipitation
Text: FIGS. 5A-H. JP2 truncations are nonfunctional in regulating Ca^2+ transients. A) An antibody against the HA tag was used to reveal the localization of adenoviral expression of tagged full-length JP2 and truncations, as indicated, in adult wild-type cardiomyocytes. All the three version of JP2 can be localized in the striated pattern. B) Full-length JP2 and JP2(1-565) forms complexes with RyR2 and Cav1.2 In vivo. An antibody against HA was used for immunoprecipitation […]. The RyR2 and Cav1.2 that were pulled down were detected by Western blot analysis. […] IB, immunoblot. C) Adenovirus-mediated expression of full-length JP2, FLAG-JP2(1-565)-HA, and JP2(566-end)-HA in JP2-KD) cardiomyocytes. D) Representative steady-state Ca^2+ transients under 1-Hz field stimulation. The fluorescence intensity (F) of Ca^2+ imaging was normalized to the baseline (FO). The red lines overlapping on Ca^2+ imaging show the profile of the moment of Ca^2+ transient firing on the scanning line in a point-by-point way. A straighter line means better synchronization of the Ca^2+ transients. Note that expression of full-length JP2, but not JP2 truncations, improves the amplitude and synchronization of Ca^2+ transients. E-G) Summary of Ca^2+ transient amplitude, index of desynchronization (mean absolute deviation of firing time), and duration of 50% decay (T5) (n=68, 70, 70, and 52 for Ad-Empty, Ad-JP2, […], and Ad-JP2(566-end), respectively). Only full-length JP2 Improves the amplitude, synchronization, and decay of Ca^2+ transients. H) Summary of SR Ca^2+ content, which was assessed by caffeine-induced SR Ca^2+ release (n=17, 17, 17, and 12 for Ad-Empty, Ad-JP2, Ad-JP2(1-565), and Ad-JP2(566-end), respectively). **, p<0.01 versus indicated groups; N.S., not significant.
Cleavage at the primary calpain proteolysis site (Arg-565/Thr-566) splits apart the C-terminal SR-binding TM domain and N-terminal plasma membrane-binding MORN domains of JP2. […]

B1: full-length JP2: full-length junctophilin-2, FLAG/HA tagged, expressed by adenovirus (protein, UniProt Q9BR39 1-696, looked up)
chain: MSGGRFDFDDGGAYCGGWEGGKAHGHGLCTGPKGQGEYSGSWNFGFEVAGVYTWPSGNTFEGYWSQGKRHGLGIETKGRWLYKGEWTHGFKGRYGIRQSSSSGAKYEGTWNNGLQDGYGTETYADGGTYQGQFTNGMRHGYGVRQSVPYGMAVVVRSPLRTSLSSLRSEHSNGTVAPDSPASPASDGPALPSPAIPRGGFALSLLANAEAAARAPKGGGLFQRGALLGKLRRAESRTSVGSQRSRVSFLKSDLSSGASDAASTASLGEAAEGADEAAPFEADIDATTTETYMGEWKNDKRSGFGVSERSSGLRYEGEWLDNLRHGYGCTTLPDGHREEGKYRHNVLVKDTKRRMLQLKSNKVRQKVEHSVEGAQRAAAIARQKAEIAASRTSHAKAKAEAAEQAALAANQESNIARTLARELAPDFYQPGPEYQKRRLLQEILENSESLLEPPDRGAGAAGLPQPPRESPQLHERETPRPEGGSPSPAGTPPQPKRPRPGVSKDGLLSPGAWNGEPSGEGSRSVTPSEGAGRRSPARPATERMAIEALQAPPAPSREPEVALYQGYHSYAVRTTPPEPPPFEDQPEPEVSGSESAPSSPATAPLQAPTLRGPEPARETPAKLEPKPIIPKAEPRAKARKTEARGLTKAGAKKKARKEAALAAEAEVEVEEVPNTILICMVILLNIGLAILFVHLLT
modifications: full-length FLAG/HA tags; adenoviral expression
notes: full-length junctophilin-2, FLAG/HA tagged, expressed by adenovirus
[1]; 1-Hz field stimulation
  decay phase (T50) of Ca2+ transients: shortened decay phase
  synchronization of Ca2+ transients (index of desynchronization): increased synchronization
[1]; 1-Hz field stimulation, adenoviral expression
  increase of Ca2+ transient amplitude: 50%
[1]; caffeine-induced SR Ca2+ release
  SR Ca2+ content: not influenced
[2]
  kinetics of steady-state Ca2+ transients and SR Ca2+ loading: did not alter
[3]
  significantly induced known genes (p<0.01): 96 genes
  significantly repressed known genes (p<0.01): 264 genes
[4]
  interaction with RyR2 and Cav1.2: interact
